Read-outs that look alike come from different tables or passages of the source.

These results are taken from US20220127357A1 (LEPU BIOPHARMA, published 2022).

Test [1] concerns the target T1, Tag2-CD47 (UniProt Q08722 19-139).
T1 construct: Tagged reagent of the HTRF assay; also called CD47 (HTRF assay)
Description: HTRF blocking assay, ratio 665 nm/615 nm; blocked ligand: Tag1-SIRP-α binding to Tag2-CD47. From the text:
(§1) To further evaluate the functions of the mouse anti-huCD47 mAbs on blocking SIRP-α interaction, the HTRF assay was employed. The interaction between Tag1-SIRP-α and Tag2-CD47 was detected by using anti-Tag1-Terbium (HTRF donor) and anti-Tag2-XL665 (HTRF acceptor). When the donor and acceptor antibodies were brought into close proximity due to SIRP-α and CD47 binding, excitation of the donor antibody triggered fluorescent resonance energy transfer (FRET) towards the acceptor antibody, which in turn emits specifically at 665 nm. This specific signal is directly proportional to the extent of CD47/SIRP-α interaction. Thus, a molecule blocking CD47/SIRP-α interaction would cause a reduction in HTRF signal.
G08 and H06 antibodies were evaluated for their activity to blocking the interaction of CD47 and SIRP-α.
Background: In TR-FRET formats the signal depends on donor and acceptor labels being close together.

The target of test [2] is T2, human CD47-His protein (human, UniProt Q08722 19-139).
T2 construct: Recombinant human CD47 with His tag; also called human CD47-his tag protein; CD47 antigen; not shown: His tag
T2 sequence (Q08722 19-139 limits assumed): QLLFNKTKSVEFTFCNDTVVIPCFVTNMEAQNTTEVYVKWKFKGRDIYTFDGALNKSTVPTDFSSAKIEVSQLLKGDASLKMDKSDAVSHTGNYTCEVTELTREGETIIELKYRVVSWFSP
Description: ELISA, purified antibody titrated on CD47-His protein, OD 450nm.

Test [3] has as its target T1, Tag2-CD47. Description: HTRF blocking assay, ratio 665 nm/615 nm; blocked ligand: Tag1-SIRP-α binding to Tag2-CD47.
Description: as §1, with “To” for “To further”, “activities” for “functions”, “humanized” for “the mouse”, “triggers” for “triggered”, “emitted” for “emits”
Anti-CD47 antibodies B5711, B5712, B5713, B5714, B5715, and B5716 were evaluated on their activities in blocking the interaction of CD47 and SIRP-α.
The source holds these as a separate data set.

Test [4] addresses T2, human CD47-His protein. Description: ELISA on human CD47-His protein, OD 450nm.
A further test concerns the target T3, cyno CD47-His protein (cynomolgus, UniProt A0A2K5X523 19-139).
T3 construct: also called cynomolgus CD47; not shown: His tag
Description: ELISA on cyno CD47-His protein, OD 450nm [Cont'd) B].

Test [5] deals with T2, human CD47-His protein. Description: SPR (Biacore) affinity ranking, antibody captured on protein A chip, 5 nM human CD47-his injected; affinity ranking, single 5 nM injection of human CD47-his, 130s dissociation. On the procedure:
(§2) To explore the binding kinetics of the humanized antibody, this example performed the affinity ranking using biacore. B5711, B5712, B5713, B5714, B5715 and B5716 mAbs were captured using protein A chip. 5 nM of human CD47-his tag protein was injected over captured antibodies for 120s at a flow rate of 30 μL/min. The antigen was allowed to dissociate for 130s.
(In general: SPR reads the build-up and loss of mass on a sensor chip optically.)

The target of test [6] is T2, human CD47-His protein. Description: SPR (Biacore) affinity ranking, antibody captured on protein A chip, 5 nM human CD47-his injected. Here is the method: as §2
Test [7] addresses T2, human CD47-His protein. Description: SPR (Biacore T200) full kinetics, antibody captured on protein A chip, serial dilution of human CD47-his injected. Here is the method: The binding of the humanized antibodies to recombinant CD47 protein (human CD47-his tag) was tested by BIACORE™ using a capture method. B5712 and B5715 mAbs were captured using protein A chip. A serial dilution of human CD47-his tag protein was injected over captured antibody for 120s at a flow rate of […]. The antigen was allowed to dissociate for 600s. All the experiments were carried out on a Biacore T200.

T1 sequence (Q08722 19-139): as the sequence (Q08722 19-139 limits assumed) above

B1: G08 antibody (antibody, V domains shown)
VH: QIQLQQSGPELVKPGASVKISCKASGDTFTDYYINWVKQKPGQGLEWIGWIYTGSGNTKYNEKFKGKTTLTVDTSSSTAYMQLNSLTSEDTAVYFCARYNPLITAVVPDYWGQGTTLTVSS
VL: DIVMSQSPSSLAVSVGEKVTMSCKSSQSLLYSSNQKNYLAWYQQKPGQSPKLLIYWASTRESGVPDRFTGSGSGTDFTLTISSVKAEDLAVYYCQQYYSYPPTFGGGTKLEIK
notes: Mouse variable domains from a Fab phage library of immunized mice; also called G08 clone; mAb G08
Take B1: the IC50 with Tag2-CD47 [1] was determined as 270 pM. In the test with human CD47-His protein [2], this molecule came in with a half-maximal effective concentration (EC50) of 5.93 ng/mL.

B2: B5711 (antibody, V domains shown)
VH: QIQLQQSGPELVKPGASVKISCKASGDTFTDYYINWVKQKPGQGLEWIGWIYTGSGNTKYNEKFKGKTTLTVDTSSSTAYMQLNSLTSEDTAVYFCARYNPLITAVVPDYWGQGTTLTVSS
VL: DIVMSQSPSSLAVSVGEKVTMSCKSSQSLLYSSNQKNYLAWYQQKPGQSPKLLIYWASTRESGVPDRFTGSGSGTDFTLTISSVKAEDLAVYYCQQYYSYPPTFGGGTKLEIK
notes: Expressed in 293F cells, purified by protein G
With B2, the IC50 with Tag2-CD47 [3] was 170 pM. This molecule displayed an EC50 in the test with human CD47-His protein [4] of 4.96 ng/mL. The EC50 in the test with cyno CD47-His protein came to 7.95 ng/mL. Moreover, the kon with human CD47-His protein [5] worked out at 4.67e+06 M⁻¹ s⁻¹. In the test with human CD47-His protein [6], this molecule showed a Kd of 819 pM and a koff of 0.00383 s⁻¹.

B3: B5712 (antibody, V domains shown)
VH: QVQLVQSGAEVKKPGASVKVSCKASGDTFTDYYINWVRQAPGQGLEWMGWIYTGSGNTKYNEKFKGRVTMTRDTSISTAYMELSRLRSDDTAVYYCARYNPLITAVVPDYWGQGTTVTVSS
VL: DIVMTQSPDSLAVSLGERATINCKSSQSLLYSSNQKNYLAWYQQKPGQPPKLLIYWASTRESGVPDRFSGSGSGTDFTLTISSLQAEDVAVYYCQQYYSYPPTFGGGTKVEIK
notes: Humanized; also called HSP206A-CDRG
For B3, the IC50 with Tag2-CD47 [3] amounted to 160 pM. The EC50 with human CD47-His protein [4] came to 5.35 ng/mL. The molecule further displayed an EC50 with cyno CD47-His protein of 10.2 ng/mL. In the test with human CD47-His protein [6], this molecule gave a Kd of 1280 pM, a koff of 0.00276 s⁻¹ and an on-rate (kon) of 2.15e+06 M⁻¹ s⁻¹. In the test with human CD47-His protein [7], this molecule displayed a dissociation constant Kd of 847 pM, an off-rate constant (koff) of 0.00128 s⁻¹ and an on-rate constant (kon) of 1.51e+06 M⁻¹ s⁻¹.

B4: B5713 (antibody, V domains shown)
VH: QIQLVQSGAEVKKPGASVKVSCKASGDTFTDYYINWVRQAPGQGLEWMGWIYTGSGNTKYNEKFKGRVTMTVDTSISTAYMELSRLRSDDTAVYYCARYNPLITAVVPDYWGQGTTVTVSS
VL: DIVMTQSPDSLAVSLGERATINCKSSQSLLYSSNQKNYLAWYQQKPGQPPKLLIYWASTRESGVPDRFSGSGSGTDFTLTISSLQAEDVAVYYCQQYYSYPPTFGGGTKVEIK
notes: Humanized
For the molecule B4, the IC50 in the test with Tag2-CD47 [3] is 210 pM. In addition, in the test with human CD47-His protein [4], the EC50 is 7.6 ng/mL. The EC50 in the test with cyno CD47-His protein was 9.5 ng/mL. In the test with human CD47-His protein [6], this molecule showed a Kd of 1000 pM, a koff of 0.00353 s⁻¹ and a kon of 3.53e+06 M⁻¹ s⁻¹.

B5: B5715 (antibody, V domains shown)
VH: QVQLVQSGAEVKKPGASVKVSCKASGYTFTDYYINWVRQAPGQGLEWMGWIYPGSANTKYSEKVKGRVTMTRDTSISTAYMELSRLRSDDTAVYYCARNDPLITAVVPDYWGQGTTVTVSS
VL: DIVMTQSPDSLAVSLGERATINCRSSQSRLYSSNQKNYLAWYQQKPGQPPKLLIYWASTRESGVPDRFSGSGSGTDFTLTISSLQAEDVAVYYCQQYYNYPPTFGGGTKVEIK
notes: Humanized; also called HSP206B-CDRG
As for B5, in the test with Tag2-CD47 [3], the IC50 amounted to 160 pM. Further, the values for the concentration for a half-maximal effect (EC50) in the test with human CD47-His protein [4] and in the test with cyno CD47-His protein were 7.09 ng/mL and 9.23 ng/mL, respectively. The equilibrium dissociation constant (Kd) with human CD47-His protein [6] came to 979 pM; in the test with human CD47-His protein [7], 560 pM. In addition, the koff in the test with human CD47-His protein [6] was determined as 0.00234 s⁻¹; with human CD47-His protein [7], 0.000287 s⁻¹. Further, the kon with human CD47-His protein [6] worked out at 2.39e+06 M⁻¹ s⁻¹; with human CD47-His protein [7], 513000 M⁻¹ s⁻¹.

B6: B5714 (antibody, V domains shown)
VH: QIQLQQSGPELVKPGASVKISCKASGYTFTDYYINWVKQKPGQGPEWIGWIYPGSANTKYSEKVKGKATLTVDTSSTTAYMQLSSLTSDDTAVYFCTRNDPLITAVVPDYWGQGTTLTVSS
VL: DIVMSQSPSSLAVSVGEKVTMSCRSSQSRLYSSNQKNYLAWYQQKPGQSPKLLIYWASTRESGVPDRFTGSGSGTDFTLTISSVKAEDLAVYYCQQYYNYPPTFGGGTKLEIK
With B6, the IC50 with Tag2-CD47 [3] stood at 140 pM. The molecule further came in with an EC50 in the test with human CD47-His protein [4] of 6.49 ng/mL. Moreover, in the test with cyno CD47-His protein, it took 8.45 ng/mL to reach a half-maximal effect (EC50). In addition, in the test with human CD47-His protein [6], the Kd turned out to be 1540 pM, the koff was found to be 0.00291 s⁻¹ and the on-rate constant (kon) turned out to be 1.89e+06 M⁻¹ s⁻¹.

B7: H06 antibody (antibody, V domains shown)
VH: QIQLQQSGPELVKPGASVKISCKASGYTFTDYYINWVKQKPGQGPEWIGWIYPGSANTKYSEKVKGKATLTVDTSSTTAYMQLSSLTSDDTAVYFCTRNDPLITAVVPDYWGQGTTLTVSS
VL: DIVMSQSPSSLAVSVGEKVTMSCRSSQSRLYSSNQKNYLAWYQQKPGQSPKLLIYWASTRESGVPDRFTGSGSGTDFTLTISSVKAEDLAVYYCQQYYNYPPTFGGGTKLEIK
notes: Mouse variable domains from a Fab phage library of immunized mice; also called H06 clone; mAb H06
As for B7, the IC50 in the test with Tag2-CD47 [1] is 210 pM. Moreover, the EC50 in the test with human CD47-His protein [2] is 5.39 ng/mL.

B8: B5716 (antibody, V domains shown)
VH: QIQLVQSGAEVKKPGASVKVSCKASGYTFTDYYINWVRQAPGQGLEWMGWIYPGSANTKYSEKVKGRVTMTVDTSITTAYMELSRLRSDDTAVYYCTRNDPLITAVVPDYWGQGTTVTVSS
VL: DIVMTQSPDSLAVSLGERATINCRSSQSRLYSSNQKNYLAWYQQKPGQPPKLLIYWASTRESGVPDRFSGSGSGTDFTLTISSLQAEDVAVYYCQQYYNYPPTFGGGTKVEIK
notes: Humanized
Consider B8, for which the half-maximal inhibitory concentration (IC50) with Tag2-CD47 [3] came to 138 pM. For the same molecule, the EC50 with human CD47-His protein [4] worked out at 11.5 ng/mL. This molecule also returned an EC50 with cyno CD47-His protein of 9.79 ng/mL. In the test with human CD47-His protein [6], this molecule came in with a Kd of 547 pM, a dissociation rate constant (koff) of 0.00452 s⁻¹ and an on-rate (kon) of 8.26e+06 M⁻¹ s⁻¹.

A word on the IC50: it is the concentration that inhibits the measured activity by half. As usually defined, the EC50 is the midpoint of the concentration-response curve. A low value points to higher potency in that assay. A word on the kon: it is the rate constant with which the complex forms. What is called Kd is the equilibrium constant for the complex coming apart. For orientation: koff means a measure of how fast the partners let go of each other.
